# Reference: patent US20100322974A1, “Targeting the histone code as a bacterial strategy for selectively modulating gene expression” (priority 2005, published 2010)
# Tests used:
# [1] = tested on: endogenous Erk; test: Erk phosphorylation in transfected HeLa cells stimulated by PMA; conditions: transfected expression plasmid, PMA stimulation
# [2] = tested on: phospho Erk2-GST; test: In vitro phosphatase assay on phospho Erk2-GST (Western blot); conditions: for dephosphorylation of phospho-Erk2 substrate: purified protein, Western blot with anti phospho-Erk
# [3] = tested on: p38 MAP kinases; test: p38 phosphorylation in transfected HeLa cells stimulated by TNF; type: cell-based; conditions: transfected plasmid, TNF stimulation
# Procedure: IF was performed with anti-OspF antibodies.
# [4] = tested on: histone H3 phosphorylation at Ser 10; test: H3 pS10 signal in HeLa cells infected with the ospF strain after kinase inhibitor pretreatment; type: cell-based; conditions: both inhibitors together, U0126 10 μM and SB203180 2.5 μM, 60 min pretreatment, 30 min infection
# [5] = biological target: OspF (Shigella flexneri, UniProt Q8VSP9, R19K/S66F)
# [6] = biological target: T1, ^33P-labeled Erk2 (Homo sapiens, UniProt P28482); test: 33P-labeled Erk2 phosphatase assay, steady state kinetics; type: biochemical; conditions: pH 8, 30° C., 100 nM phosphatase, 10 minutes, Michaelis-Menten fit; for Km: read-out: Km of Erk2 dephosphorylation
# T1 construct: made in house
# Excerpt: In vitro phosphatase assay.
# [7] = tested on: 33P-labeled Erk2 (GST-Erk2 fusion protein phosphorylated in vitro by MEK1) [GST: P08515]
# [8] = tested on: phospho JNK1; test: In vitro phosphatase assay on purified phospho JNK1 Histidine; type: biochemical; conditions: 50 nM substrate
# [9] = tested on: NF-κB; test: TNF-α-induced NF-κB reporter construct in Caco 2 cells; type: cell-based, human; conditions: overexpression in Caco 2 cells
# Excerpt: In addition to the classical MAPK-dependent target genes, OspF also repressed expression of some NF-κB-dependent chemokine genes such as IL-8. The IL-8 promoter contains an NF-κB binding site essential for expression of this gene (Hoffmann et al., 2002). Therefore, the inventors looked whether OspF interferes with the NF-κB signaling pathway.
# [10] = tested on: histone H3 phosphorylation at Ser 10; test: H3 pS10 induced by okadaic acid in HeLa cells overexpressing OspF (immunofluorescence); type: cell-based; conditions: 200 nM okadaic acid 3 hours
# Procedure: (A) HeLa cells were left untreated (ns) or infected with the WT or the ospF strain at the indicated time. Indirect immunofluorescence detection was performed with anti-phospho-histone H3 S10 polyclonal antibody. (B) HeLa cells were synchronized by a double thymidine block (2 mM thymidine) and left untreated (ns) or infected with the WT or the ospF strain at the indicated time. Immunoblots were probed with anti-H3 phospho S10 (H3 pS10), anti-H3 methyl K9-phospho S10 (H3 metK9-pS10), anti-H3 phospho S10 acetyl-K14 (H3 p-S10/Ac-K14), anti Histone H3 polyclonal anti-pp 38 and pErk antibodies. (C) HeLa cells were transfected with pRK5myc-OspF vector and treated with 200 nM okadaic acid for 3 hours. IF was performed with anti-myc (red) and anti-H3 methyl K9-pS10 (green) antibodies. […] (D) One micogram of calf-thymus histone (Sigma) was incubated with 300 ng of His-OspF or with 120 U of λ phosphatase for 2 hours at 30° C. Western blot was performed with an anti-metK9-pS10 antibody. (E) One micogram of peptide metK9-S10 was spotted onto a nitrocellulose membrane that was incubated with buffers, 5 μg/ml of OspF, or 2000 U/ml of lambda phosphatase for 2 hours at 30° C. Western blot was performed with an anti-metK9-pS10 antibody. (F) HeLa cells were pretreated for 60 min with either the MEK1 inhibitor U0126 (10 μM) or the p38 inhibitor SB203180 (2.5 μM) or both. […]
# [11] = tested on: phospho p38-GST; test: In vitro phosphatase assay on purified phospho p38-GST; type: biochemical; conditions: 50 nM substrate
# [12] = tested on: histone H3 purified from calf thymus; test: Direct dephosphorylation of histone H3 or H3 tail peptides in vitro; type: biochemical; conditions: 2 hours 30° C., even at 100 fold increased enzyme concentration
# [13] = tested on: histone H3 K14 acetylation; test: Trichostatin-induced hyper acetylation on K14 in HeLa cells overexpressing OspF; type: cell-based
# Excerpt: A plasmid encoding myc-labelled OspF was used to overexpress OspF in HeLa cells. […] Thus, variations of the levels of phosphoacetylated histone H3 are likely to reflect the sole capacity of OspF to reduce the level of phosphorylation at Ser10.
# [14] = biological target: 33P-labeled Erk2 (GST-Erk2 fusion protein phosphorylated in vitro by MEK1) [GST: P08515]; remark: listed apart in the source
# [15] = tested on: IL-12; test: Cytokine production in infected lungs (murine pulmonary infection, ELISA); type: in vivo, mice; conditions: lungs infected with M90T or ospF strain, 24 hours post-infection
# Procedure: The cytokine/chemokine network induced upon infection with Shigella flexneri was analyzed by comparing the profiles obtained upon infection with the invasive strain carrying the virulence plasmid (INV+) and the non-invasive, plasmidless strain (INV−). The murine model of pulmonary infection was used since it was the only valid model to analyze the specific host immune response upon Shigella infection. Following infection with INV−, a Th1 type-network (IL-12, IL-18, CCL9, CCL10, CCL13, and CCL4) was induced. In contrast, a Th2/Tr1 profile (IL-10, CCL1, CCL24 and CCL2) was induced upon infection with INV+. The difference observed was not due to the bacterial dose used for the infection, but was dependent on the presence or absence of the virulence plasmid.
# Some of these bacterial effectors are injected within the host cells by a type III secretion apparatus. Use of different bacterial mutants, has highlighted that the bacterial effectors involved in the immunomodulation were effectors secreted by the type III-secretion apparatus. Finally, OspF, a type III-secreted bacterial effector was responsible for the control of IL-12 production (FIG. 10).
# [16] = tested on: IL-8 promoter; test: ChIP with anti-OspF antibody at the IL-8 promoter in transfected HeLa cells; type: cell-based
# Procedure: (A) DNA isolated from sonicated cross-linked chromatin fragments used as inputs for Chlp assays run on a 2% agarose/TAE gel. (B) Cross-linked chromatin fragments were prepared from Caco 2 cells left untreated (ns) or infected with the WT or the ospF strains at the indicated time. For each time point, aliquots were immunoprecipitated with irrelevant IgG, anti-H3 methyl K9-pS10, or anti-p65 antibodies. Histograms show the results obtained by Real-Time PCR analysis using amplicon from the promoter region of IL-8. Data are expressed as relative enrichment as compared to the result obtained with the corresponding IgG that have been immunoprecipitated at the same time point. […] (C) The data are given as in figure (B) except that the aliquots were immunoprecipitated with irrelevant IgG or anti-RNAPII antibodies. […]
# To address whether MAPK-induced H3pS10 in the vicinity of the IL-8 promoter, HeLa cells expressing the plasmids encoding WT ospF, or as control, a C-terminal deletion mutant of the last 30 amino acids ospF (1-221) unable to localize within the nucleus (FIG. 7G) were processed for chromatin immunoprecipitation (ChIP) assay using the anti-OspF antibody and the enrichment of OspF at the IL-8 promoter was analyzed by Real-Time quantitative PCR.
# In unstimulated cells, no signal was detected at the IL-8 promoter (FIG. 7H). […]
# T1 sequence (P28482 whole entry): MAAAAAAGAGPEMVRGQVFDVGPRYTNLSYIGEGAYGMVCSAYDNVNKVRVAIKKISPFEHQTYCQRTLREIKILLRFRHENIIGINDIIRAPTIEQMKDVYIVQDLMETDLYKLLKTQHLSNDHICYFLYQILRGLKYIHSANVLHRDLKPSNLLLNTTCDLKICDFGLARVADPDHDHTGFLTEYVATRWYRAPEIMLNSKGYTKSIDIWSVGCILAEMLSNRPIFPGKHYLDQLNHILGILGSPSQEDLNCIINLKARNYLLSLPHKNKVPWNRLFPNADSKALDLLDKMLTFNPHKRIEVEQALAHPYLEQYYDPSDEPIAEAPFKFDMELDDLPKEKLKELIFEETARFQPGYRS
molecule,measurement,setting,value
C1805: OspF with Cys 180 mutated into Ser (printed C1805),ability to dephosphorylate Erk / prevent Erk phosphorylation in HeLa cells,[1],None of the mutations
His to Leu mutation at position 172: OspF with His to Leu mutation at position 172,ability to dephosphorylate Erk / prevent Erk phosphorylation in HeLa cells,[1],retention of phosphatase activity
D219: OspF with aspartate D219 mutated into asparagine,dephosphorylation of phospho-Erk2 substrate,[2],did not impair phosphatase activity
myc-labelled OspF: myc labelled OspF expressed from plasmid pRK5myc-OspF,ability to dephosphorylate Erk / prevent Erk phosphorylation in HeLa cells,[1],prevented phosphorylation
same,prevention of p38 phosphorylation in HeLa cells,[3],prevented phosphorylation
N#CC(=C(/N)Sc1ccccc1N)/C(C#N)=C(\N)Sc1ccccc1N [U0126],H3 pS10 signal induced by the ospF strain,[4],fully inhibited
C[S+]([O-])c1ccc(-c2nc(-c3ccc(F)cc3)c(-c3ccncc3)[nH]2)cc1 (centres unmarked) [SB 203180],H3 pS10 signal induced by the ospF strain,[4],fully inhibited
O=C(O)CN(CCN(CC(=O)O)CC(=O)O)CC(=O)O [EDTA],OspF activity blocked by EDTA (metal dependence),[5],not blocked
"MKP1 (enzyme, UniProt P28562 1-367, looked up, species assumed) Dual specificity protein phosphatase 1: MVMEVGTLDAGGLRALLGERAAQCLLLDCRSFFAFNAGHIAGSVNVRFSTIVRRRAKGAMGLEHIVPNAELRGRLLAGAYHAVVLLDERSAALDGAKRDGTLALAAGALCREARAAQVFFLKGGYEAFSASCPELCSKQSTPMGLSLPLSTSVPDSAESGCSSCSTPLYDQGGPVEILPFLYLGSAYHASRKDMLDALGITALINVSANCPNHFEGHYQYKSIPVEDNHKADISSWFNEAIDFIDSIKNAGGRVFVHCQAGISRSATICLAYLMRTNRVKLDEAFEFVKQRRSIISPNFSFMGQLLQFESQVLAPHCSAEAGSPAMAVLDRGTSTTTVFNFPVSIPVHSTNSALSYLQSPITTSPSC",Vmax of Erk2 dephosphorylation,[6],6.01 pM/s
same,kcat of Erk2 dephosphorylation,[6],0.0006 s⁻¹
same,Km,[6],0.229 µM
same,"Km (release of radioactive inorganic phosphate, Michaelis-Menten fit, 100 nM enzyme)",[7],0.229 µM
same,"Vmax (release of radioactive inorganic phosphate, Michaelis-Menten fit, 100 nM enzyme)",[7],6.01 pM/s
same,"dephosphorylation of 33P-labeled Erk2 (gel mobility in SDS-PAGE/autoradiography, phospho-Erk Western blot)",[7],Dephosphorylation of Erk2 by both enzymes was confirmed by the gel-mobility increase of the substrate
same,"kcat (release of radioactive inorganic phosphate, Michaelis-Menten fit, 100 nM enzyme)",[7],0.0006 s⁻¹
OspF phosphatase (protein) MPIKKPCLKLNLDSLNVVKSEIPQMLSANERLKNNFNILYNQIRQYPAYYFKVASNVPTYSDICQFFSVMYQGFQIVNHSGDVFIHACRENPQSKGDFVGDKFHISIAREQVPLAFQILSGLLFSEDSPIDKWKITDMNRVSQQSRVGIGAQFTLYVKSDQECSQYSALLLHKIRQFIMCLESNLLRSKIAPGEYPASDVRPEDWKYVSYRNELRSDRDGSERQEQMLREEPFYRLMIE,dephosphorylation of purified phospho JNK1,[8],failed to dephosphorylate
same,TNF-α-induced activation of a NF-κB reporter construct,[9],did not impair
same,Vmax of Erk2 dephosphorylation,[6],9.89 pM/s
same,kcat of Erk2 dephosphorylation,[6],0.0001 s⁻¹
same,Km,[6],0.204 µM
same,induction of H3 pS10 by okadaic acid,[10],efficiently prevented
same,dephosphorylation of purified phospho p38,[11],directly dephosphorylated
same,dephosphorylation of pT183 and pY185 residues of Erk,"[2]; 500 ng OspF, 50 ng phospho Erk2-GST, 1 hour 30° C.",dephosphorylated both Thr and Tyr residues
same,dephosphorylation of phospho-Erk2 substrate,[2],directly dephosphorylated
same,direct dephosphorylation of histone H3 and metK9-pS10 / pS10 peptides,[12],did not directly dephosphorylate
same,trichostatin-induced hyper acetylation on K14,[13],did not impair
same,"Km (release of radioactive inorganic phosphate, Michaelis-Menten fit, pH 8, 30° C., 100 nM enzyme)",[14],204 nM
same,"Vmax (release of radioactive inorganic phosphate, Michaelis-Menten fit, pH 8, 30° C., 100 nM enzyme)",[14],9.89 pM s^-1
same,"kcat (release of radioactive inorganic phosphate, Michaelis-Menten fit, pH 8, 30° C., 100 nM enzyme)",[14],0.0001 s^-1
same,IL-12 production in vivo,[15],down regulated
same,recruitment of OspF at the IL-8 promoter,[16]; TNF-α stimulation,transient recruitment
same,OspF at the IL-8 promoter,[16]; unstimulated cells,not detectable
